Source: patent publication US20220162322A1 (CAPELLA BIOSCIENCE, published 2022)
Where a chain is given by its changes, count along the chain named. Values belong to the binder of their own block, whether it stands above or below them.

Legend:
[1] = molecular target: T1, human BDCA-2 (CLEC4C) expressed on transfected U937 cells (human, UniProt Q8WTT0 1-213); assay: flow cytometry (MFI titration) on cells expressing human BDCA-2
T1 construct: also called cell expressed human BDCA-2; Q8WTT0
T1 sequence: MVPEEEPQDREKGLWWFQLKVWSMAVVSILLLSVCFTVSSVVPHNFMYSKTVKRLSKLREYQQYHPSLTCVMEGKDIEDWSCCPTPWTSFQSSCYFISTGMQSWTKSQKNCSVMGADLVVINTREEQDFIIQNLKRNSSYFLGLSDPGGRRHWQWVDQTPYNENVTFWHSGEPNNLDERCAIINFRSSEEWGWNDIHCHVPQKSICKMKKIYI
Description: (§1) Cells expressing human and cynomolgus BDCA-2 were resuspend at 2×10⁶ cells/mi in FACS buffer (2% FBS/PBS) and 50 μl of the cell suspension was added per well, in a 96-well V bottom plate. The plate was centrifuge and the supernatant discarded. 12 serial, 2-fold dilutions of mAbs, starting at 50 μg/ml (range 50-0.024 μg/ml), in FACS buffer were prepared and 25 μl of the mAb dilutions added to wells, in triplicate. The plate was then incubated for 60 min at room temperature then centrifuged and washed 3× with 150 μl FACS buffer. To each well was then added 25 μl goat-anti-human PE conjugate (or goat-anti-mouse in the case of AC144), diluted 1:200 in FACS buffer. The plates were incubated for 60 min at room temperature protected from light and centrifuged and washed 3× with 150 μl FACS buffer. 25 μl per well of 2% PFA 2% was added and incubated for 20 min at 4° C., protected from light and analysed on the iQue screener.
(§2) Serial dilutions of the 4 chimeric mAbs (50-0.25 ug/ml) were prepared and incubated with cells expressing human and cynomolgus BDCA-2. After staining, the median fluorescence intensity (MFI) of the cells was measured and the data points of the dilution series were fitted on a sigmoidal curve after normalization to determine the EC50 values.

[2] = molecular target: T2, cynomolgus BDCA-2 expressed on transfected U937 cells (cynomolgus, UniProt Q8WTT0 1-213 (human entry)); assay: flow cytometry (MFI titration) on cells expressing cynomolgus BDCA-2
T2 construct: also called cell expressed cynomolgus BDCA-2
T2 chain: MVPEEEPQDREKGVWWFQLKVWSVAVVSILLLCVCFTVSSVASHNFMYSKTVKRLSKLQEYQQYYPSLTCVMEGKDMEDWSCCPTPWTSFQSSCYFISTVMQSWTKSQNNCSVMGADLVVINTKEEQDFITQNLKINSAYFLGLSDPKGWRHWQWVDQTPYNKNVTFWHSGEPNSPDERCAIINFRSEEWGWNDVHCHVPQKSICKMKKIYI
Description: as §1, §2

[3] = molecular target: T3, human BDCA-2-Fc (hIgG1-Fc-hBDCA-2) (human); assay: SPR (BIAcore T200), huBDCA2-Fc immobilised on CM5 chip, mAb injected
T3 construct: also called huBDCA2-Fc
T3 sequence (chain, as listed by the source limits assumed): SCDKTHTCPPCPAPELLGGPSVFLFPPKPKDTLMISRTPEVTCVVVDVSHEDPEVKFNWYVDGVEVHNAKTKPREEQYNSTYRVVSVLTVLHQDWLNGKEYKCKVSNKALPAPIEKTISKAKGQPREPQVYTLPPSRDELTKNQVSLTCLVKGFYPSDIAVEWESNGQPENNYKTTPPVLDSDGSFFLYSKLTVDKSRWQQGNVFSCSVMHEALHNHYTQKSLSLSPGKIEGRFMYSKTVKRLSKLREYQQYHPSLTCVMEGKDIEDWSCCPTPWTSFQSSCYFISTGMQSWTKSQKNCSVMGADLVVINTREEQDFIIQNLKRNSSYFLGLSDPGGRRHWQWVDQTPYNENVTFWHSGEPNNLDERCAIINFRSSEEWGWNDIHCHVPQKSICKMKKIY
Description: A BIAcore T200 was used with BIAcore run buffer (HBS-EP) at pH7.4. 692RU of huBDCA2-Fc was immobilized to a CM5 chip (CFJB156) utilising 5 μg/ml of huBDCA2-Fc with the BIAcore EDC/NHS kit according to the manufacturer's instructions. Two-fold dilutions of the humanized mAbs were injected starting at 200 nM down to 3.1 nM with a contact time of 60 s at a flow of 30 or 60 ul/min at 25° C. followed by an off-rate wash for 5 minutes with BIAcore buffer. […] The BIAcore T200 software was used to calculate Ka (1/Ms), Kd (1/s) and the KD (nM).

[4] = molecular target: T3, human BDCA-2-Fc (hIgG1-Fc-hBDCA-2); assay: SPR (BIAcore), comparison of KD
[5] = molecular target: T3, human BDCA-2-Fc (hIgG1-Fc-hBDCA-2); assay: ELISA on plate-coated human BDCA2-Fc
Description: 100 ul per well of 0.5 μg/ml of human BDCA2-Fc in PBS pH 7.4 was incubated overnight at 4 C. The wells were then washed 3 times with PBST (PBS+0.05% Tween 20) and then blocked with 250 ul 4% Skimmed Milk (Marvel, cat. no. 3023033 Lot no. 7169) in PBS for 120 min at RT. The wells were washed and then incubated with 100 ul per well of humanized mAbs at 3 fold dilutions (from 1 μg/ml to 0.001 μg/ml) in 1% Skimmed Milk PBS buffer at pH 7.4. After 60 min at RT the wells were washed 3 times in PBST and 100 ul of mouse anti-human IgG (anti-CH1-HRP; 1:1000, BD Pharmigen cat. no. 555788) or donkey anti-mouse IgG (anti-mouse IgG-HRP) at 1:5000 dilution (Jackson ImmunoResearch, Cat. no. 715-035-150) in 1% Skimmed Milk PBS was added. Development was with TMB (ThermoFisher, cat. no. 00-4201-56), 100 ul/well and the reaction stopped with 100 μl/well H2SO4 (cat. nr. J/8430/15, lot nr.) and the absorbance read at 450 nm. The EC50 was calculated using Graphpad Prism software. A negative (1% Skimmed Milk/PBS) and positive control (anti-BDCA-2, AC144, Miltenyi Biotec, cat. no. 130-090-690) were utilised in the assay.

[6] = molecular target: T4, BDCA-2 (CLEC4C, CD303) on human plasmacytoid dendritic cells (purified pDC or pDC within PBMC) (human, UniProt Q8WTT0 1-213); assay: cell-based or functional assay
T4 sequence: T1 sequence

[7] = molecular target: T4, BDCA-2 (CLEC4C, CD303) on human …; assay: cell-based or functional assay; remark: listed apart in the source

B4: 3E05_var1 (antibody, human IgG1, V domains shown)
VH: EVQLVESGGGLVKPGGSLRLSCAASGFTFSSYTMSWVRQAPGKGLEWVAYISSGGGNTYYPDSVKGRFTISRDNAKNSLYLQMNSLRAEDTAVYYCARHDYYDGGLYYAMDYWGQGTLVTVSS
VL: DIVMTQSPDSLAVSLGERATINCKASQSVDYDGDSSMNWYQQKPGQPPKLLISAASTLESGVPSRFSGSGSGTDFTLTISSLQAEDVAVYYCQQTNEDPPTFGGGTKVEIK
notes: also called 3E05 VL1VH1 (var_1)
- Kd [3]: < 0.01 nM
- fold higher affinity than parental wild type 3E05 and AC144 [4]: > 100 fold
- EC50 [5]: 0.51 nM

B6: 3E05_var7 (antibody, human IgG1, V domains shown)
VH: B4 VH with N57Q
VL: B4 VL with A25S, V89T
notes: also called 3E05 VL2VH3 (var_7)
- Kd [3]: < 0.01 nM
- fold higher affinity than parental wild type 3E05 and AC144 [4]: > 100 fold
- EC50 [5]: 0.33 nM

B7: 3E05_var8 (antibody, human IgG1, V domains shown)
VH: B4 VH with N57Q, D103E
VL: B4 VL with A25S, V89T
- Kd [3]: < 0.01 nM
- fold higher affinity than parental wild type 3E05 and AC144 [4]: > 100 fold
- EC50 [5]: 0.21 nM

B9: 3E05_var5 (antibody, human IgG1, V domains shown)
VH: B4 VH
VL: B4 VL with A25S, V89T
notes: also called 3E05 VL2VH1 (var_5)
- Kd [3]: < 0.01 nM
- fold higher affinity than parental wild type 3E05 and AC144 [4]: > 100 fold
- EC50 [5]: 0.51 nM

B10: 3E05_var3 (antibody, human IgG1, V domains shown)
VH: B4 VH with N57Q
VL: B4 VL
notes: also called 3E05 VL1VH3 (var_3)
- Kd [3]: < 0.01 nM
- fold higher affinity than parental wild type 3E05 and AC144 [4]: > 100 fold
- EC50 [5]: 0.27 nM

B12: 3E05_var9 (antibody, human IgG1, V domains shown)
VH: B4 VH
VL: B4 VL with A25S, S53Y, V89T
notes: also called 3E05 VL3VH1 (var_9)
- Kd [3]: < 0.01 nM
- fold higher affinity than parental wild type 3E05 and AC144 [4]: > 100 fold
- EC50 [5]: 1.12 nM

B14: 3E05_var2 (antibody, human IgG1, V domains shown)
VH: B4 VH with E1Q, A49S, P61A
VL: B4 VL
notes: also called 3E05 VL1VH2 (var_2)
- Kd [3]: 0.3 nM
- EC50 [5]: 0.32 nM

B15: 3E05_var4 (antibody, human IgG1, V domains shown)
VH: B4 VH with N57Q, D103E
VL: B4 VL
notes: also called 3E05 VL1VH4 (var_4)
- Kd [3]: < 0.01 nM
- fold higher affinity than parental wild type 3E05 and AC144 [4]: > 100 fold
- EC50 [5]: 0.29 nM

B16: 3E05_var6 (antibody, human IgG1, V domains shown)
VH: B4 VH with E1Q, A49S, P61A
VL: B4 VL with A25S, V89T
notes: also called 3E05 VL2VH2 (var_6); 3E05VL2VH2 (var_6)
- Kd [3]: < 0.01 nM
- fold higher affinity than parental wild type 3E05 and AC144 [4]: > 100 fold
- IC50, ng/ml; inhibition of IFNα from ODN stimulated healthy donor PBMC [6]: 12.3 ng/mL
- IC90, ng/ml; inhibition of IFNα from ODN stimulated healthy donor PBMC [6]: 110 ng/mL
- EC50 [5]: 0.29 nM
- IC50, nM; inhibition of IFNα from ODN stimulated healthy donor PBMC [7]: 0.08 nM
- IC90, nM; inhibition of IFNα from ODN stimulated healthy donor PBMC [7]: 0.73 nM

B18: 3E05_var10 (antibody, human IgG1, V domains shown)
VH: B4 VH with E1Q, A49S, P61A
VL: B4 VL with A25S, S53Y, V89T
notes: also called 3E05 VL3VH2 (var_10)
- Kd [3]: 0.73 nM
- EC50 [5]: 0.71 nM

Further lines, results first:

- EC50 [1]: 0.57 µg/mL
- EC50 [2]: 1.35 µg/mL
B1: chimeric mAb 25E06 (antibody, human IgG1, V domains shown)
VH: EVKLVESGGGLVKPGGSLKLSCAASGFTFSSYTMSWVRQTPEKRLEWVAYISGVGGDTYYPDSVKGRFTISRDNARNTLYLQMSSLRSEDTAMFYCARHHYSHYFWYFDVWGAGTTVTVSS
VL: DIVLTQSPASLAVSLGQRATISCKASQSVDYDGDGFMNWYQQKPGQPPKLLIYAASNLESGIPARFSGSGSGADFTLNIHPVEEEDAATYYCQQSNEDPPTFGGGTKLEIK
notes: also called Parental 25E06

- EC50 [1]: 0.3 µg/mL
- EC50 [2]: 0.92 µg/mL
B2: chimeric mAb 21E06 (antibody, human IgG1, V domains shown)
VH: EVKLVESGGGLVKSGGSLKLSCEVSGFTFSSYTISWVRQTPEKRLEWVAYISSGGDNAYYPDSVKGRFTISRDNARNTLYLQMSSLRSEDTAMYYCARHLYYGDYFYVMDYWGQGTSVTVSS
VL: B1 VL with G35N, F36C, M37L, N38H, Y40F, A73T
notes: also called Parental 21E06

- EC50 [1]: 0.77 µg/mL
- EC50 [2]: 0.79 µg/mL
B3: chimeric mAb 28B01 (antibody, human IgG1, V domains shown)
VH: B1 VH with S31Y, G53S, V54G, G56D, D57N, T58A, K65R, F94Y, H103N
VL: B1 VL with D32A, G35S, F36Y, M37V, A73T
notes: also called 28B1; Parental 28B01

- Kd [3]: < 0.01 nM
- fold higher affinity than parental wild type 3E05 and AC144 [4]: > 100 fold
- EC50 [5]: 0.25 nM
B5: 3E05_var15 (antibody, human IgG1, V domains shown)
VH: B4 VH with N57Q
VL: B4 VL with D32E
notes: also called 3E05 VL4VH3 (var_15)

- Kd [3]: 0.94 nM
- EC50 [5]: 0.81 nM
B8: 3E05_var11 (antibody, human IgG1, V domains shown)
VH: B4 VH with N57Q
VL: B4 VL with A25S, S53Y, V89T
notes: also called 3E05 VL3VH3 (var_11)

- Kd [3]: < 0.01 nM
- fold higher affinity than parental wild type 3E05 and AC144 [4]: > 100 fold
- EC50 [5]: 0.45 nM
B11: 3E05_var13 (antibody, human IgG1, V domains shown)
VH: B4 VH
VL: B4 VL with D32E
notes: also called 3E05 VL4VH1 (var_13)

- Kd [3]: < 0.01 nM
- fold higher affinity than parental wild type 3E05 and AC144 [4]: > 100 fold
- IC50, ng/ml; inhibition of IFNα from ODN stimulated healthy donor PBMC [6]: 19.3 ng/mL
- IC90, ng/ml; inhibition of IFNα from ODN stimulated healthy donor PBMC [6]: 173 ng/mL
- EC50 [5]: 0.32 nM
- IC50, nM; inhibition of IFNα from ODN stimulated healthy donor PBMC [7]: 0.13 nM
- IC90, nM; inhibition of IFNα from ODN stimulated healthy donor PBMC [7]: 1.15 nM
B13: 3E05_var14 (antibody, human IgG1, V domains shown)
VH: B4 VH with E1Q, A49S, P61A
VL: B4 VL with D32E
notes: also called 3E05 VL4VH2 (var_14); 3E05VL4VH2 (var_14)

- Kd [3]: < 0.01 nM
- fold higher affinity than parental wild type 3E05 and AC144 [4]: > 100 fold
- EC50 [5]: 0.25 nM
B17: 3E05_var16 (antibody, human IgG1, V domains shown)
VH: B4 VH with N57Q, D103E
VL: B4 VL with D32E

- Kd [3]: 0.7 nM
B19: anti-BDCA-2 mAb BIIB059 (from patent WO2014093396) (antibody, V domains shown)
VH: DVQLVESGGGLVKPGGSLRLSCAASGFTFSTYTMSWVRQAPGKGLEWVATISPGDSFGYYYPDSVQGRFTISRDNAKNSLYLQMNSLRAEDTAVYYCTRDIYYNYGAWFAYWGQGTLVTVSS
VL: DIQLTQSPSSLSASVGDRVTITCKASQSVDYDGDSYMNWYQQKPGKAPKLLIYAASTLESGVPSRFSGSGSGTDFTLTISSLQPEDFATYYCQQANEDPRTFGQGTKVEIKR
